Laboratory results taken from patent US20220119534A1 (DRAGONFLY THERAPEUTICS, published 2022).
Substitutions are numbered along the chain they refer to. Numbers in names are those of the source.

What was measured:
Human CLEC12A-His [1] = molecular target: T1, Human CLEC12A-His (human, UniProt Q5QGZ9 65-265); assay: SPR Biacore 8K 37 C; TriNKET captured on anti-hFc chip, hCLEC12A-His as analyte; 1:1 fit; after 4 wks 2-8 C in CST pH 7.0, n=2
T1 construct: Recombinant soluble protein made in house (Dragonfly Tx); The hCLEC12A spot of the HuProt array is written under this molecule as well; also called hCLEC12A-His; hCLEC12A; not shown: His tag
T1 sequence: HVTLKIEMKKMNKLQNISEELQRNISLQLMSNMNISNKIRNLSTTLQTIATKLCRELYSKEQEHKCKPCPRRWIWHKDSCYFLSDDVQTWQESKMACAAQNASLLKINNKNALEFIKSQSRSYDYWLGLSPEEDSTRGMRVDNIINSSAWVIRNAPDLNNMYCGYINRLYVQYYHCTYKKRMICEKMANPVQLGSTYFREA

[2] = molecular target: T2, human CLEC12A on cells (HL60, PL21, Ba/F3-hCLEC12A) (human, UniProt Q5QGZ9 1-265); assay: flow cytometry, PL21 cells
T2 construct: Endogenous on the AML lines HL60 and PL21; brought into mouse Ba/F3 cells by retroviral transduction; The cell line stands under assay; also called CLL-1
T2 sequence: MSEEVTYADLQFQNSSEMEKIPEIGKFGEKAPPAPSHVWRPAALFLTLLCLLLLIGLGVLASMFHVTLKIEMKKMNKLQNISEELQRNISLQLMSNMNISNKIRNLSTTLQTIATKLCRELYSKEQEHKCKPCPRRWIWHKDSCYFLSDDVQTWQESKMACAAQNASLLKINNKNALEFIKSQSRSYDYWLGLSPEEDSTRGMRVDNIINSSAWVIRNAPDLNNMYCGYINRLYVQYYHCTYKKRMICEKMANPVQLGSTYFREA

Human CLEC12A-His [3] = molecular target: T3, Human CLEC12A-His (human, UniProt Q5QGZ9 65-265); assay: SPR; sample after low pH hold
T3 construct: Recombinant soluble protein made in house; also called hCLEC12A-His; hCLEC12A; not shown: His tag
T3 sequence: T1 sequence

mFc-hNKG2D = molecular target: T4, mFc-hNKG2D (human, UniProt P26718 73-216); assay: SPR; sample after low pH hold
T4 construct: extracellular domain; Recombinant mFc-tagged NKG2D dimer, made in house; also called human NKG2D; not shown: mouse Fc tag
T4 sequence (looked up): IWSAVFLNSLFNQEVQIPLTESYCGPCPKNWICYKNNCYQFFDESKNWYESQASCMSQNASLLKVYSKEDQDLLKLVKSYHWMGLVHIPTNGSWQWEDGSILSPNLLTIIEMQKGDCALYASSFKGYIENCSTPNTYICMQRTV

Human CD16a V158 = molecular target: T5, Human CD16a V158 (human, UniProt P08637 17-208, biotinylated); assay: SPR; sample after low pH hold
T5 construct: Bought recombinant receptor; also called hCD16a (V158); hFcγRIIIa V158
T5 sequence (P08637 17-208 F176V limits assumed): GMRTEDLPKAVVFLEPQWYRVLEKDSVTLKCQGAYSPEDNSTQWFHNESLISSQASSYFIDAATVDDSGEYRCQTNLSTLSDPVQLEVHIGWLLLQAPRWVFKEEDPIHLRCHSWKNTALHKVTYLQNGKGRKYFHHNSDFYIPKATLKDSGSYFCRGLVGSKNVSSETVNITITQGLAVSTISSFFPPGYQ

[4] = molecular target: T2, human CLEC12A on cells (HL60, PL21, …); assay: flow cytometry, Ba/F3-hCLEC12A cells
[5] = molecular target: T6, Human CLEC12A expressed on cells (Ba/F3-hCLEC12A, PL21, HL60) (human, UniProt Q5QGZ9 1-265); assay: cell-based or functional assay
T6 sequence: T2 sequence

[6] = molecular target: T7, Human CLEC12A-His (recombinant, K244 WT) (human, UniProt Q5QGZ9 65-265); assay: SPR, untreated CLEC12A, two-state fit
T7 construct: Made in house (Dragonfly Tx); also called hCLEC12A; hCLEC12A-His; not shown: His tag
T7 sequence: T1 sequence

[7] = molecular target: T8, recombinant cynomolgus CD64 (cynomolgus monkey, UniProt A0A2K5U901 33-309, Biotinylated for capture on the CAP chip; the biotin site is not stated.); assay: SPR, summary table
T8 construct: also called cFcγRI; cyno CD64; not shown: The vendor's biotinylation and purification tag, used for capture via biotin
T8 sequence (A0A2K5U901 entry or part of it limits assumed): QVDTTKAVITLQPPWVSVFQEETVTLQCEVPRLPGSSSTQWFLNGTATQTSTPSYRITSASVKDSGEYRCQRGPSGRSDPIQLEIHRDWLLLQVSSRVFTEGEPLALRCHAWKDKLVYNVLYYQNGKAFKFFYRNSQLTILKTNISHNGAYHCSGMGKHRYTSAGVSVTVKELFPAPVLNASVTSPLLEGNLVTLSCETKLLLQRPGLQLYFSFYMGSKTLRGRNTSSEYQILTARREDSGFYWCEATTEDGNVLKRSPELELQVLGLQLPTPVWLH

[8] = molecular target: T9, recombinant human CD32a H131 (human, UniProt P12318 36-218, limits assumed, biotinylated); assay: SPR, summary table
T9 construct: also called FcγRIIa H131
T9 sequence (looked up): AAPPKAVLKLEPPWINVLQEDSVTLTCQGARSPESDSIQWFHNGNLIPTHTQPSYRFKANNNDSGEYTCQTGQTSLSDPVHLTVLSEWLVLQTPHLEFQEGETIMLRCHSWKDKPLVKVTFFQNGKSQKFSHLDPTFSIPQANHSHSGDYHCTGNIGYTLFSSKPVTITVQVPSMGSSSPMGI

[9] = molecular target: T10, recombinant human CD32a R131 (human, UniProt P12318 36-218, limits assumed, biotinylated); assay: SPR, summary table
T10 construct: also called FcγRIIa R131
T10 sequence (looked up): T9 sequence (looked up) with H132R

[10] = molecular target: T11, human CLEC12A expressed on cells (human, UniProt Q5QGZ9 1-265); assay: flow cytometry, HL60
T11 construct: Transduced isogenic cells or endogenous expression on AML cells; also called RMA-hCLEC12A; Ba/F3-hCLEC12A
T11 sequence: T2 sequence

recombinant human FcRn [11] = molecular target: T12, recombinant human FcRn (human, UniProt P55899 24-297; P61769 21-119); assay: SPR 25C, pH 6.0, steady state; pH 6.0; first replicate
T12 construct: also called hFcRn
T12 sequence (P55899 24-297 limits assumed, chain 1 of 2): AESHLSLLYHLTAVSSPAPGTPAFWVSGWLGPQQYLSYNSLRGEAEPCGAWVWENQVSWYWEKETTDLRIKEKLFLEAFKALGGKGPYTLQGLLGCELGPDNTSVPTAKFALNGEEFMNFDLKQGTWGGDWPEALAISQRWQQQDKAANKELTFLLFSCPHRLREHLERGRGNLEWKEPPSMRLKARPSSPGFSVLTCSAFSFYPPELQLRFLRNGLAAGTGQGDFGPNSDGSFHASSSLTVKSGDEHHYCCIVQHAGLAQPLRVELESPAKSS
T12 sequence (P61769 21-119 limits assumed, chain 2 of 2): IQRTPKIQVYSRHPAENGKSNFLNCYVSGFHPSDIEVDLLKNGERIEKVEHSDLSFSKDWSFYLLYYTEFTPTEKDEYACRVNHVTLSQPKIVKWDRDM

recombinant human FcRn [12] = molecular target: T12, recombinant human FcRn; assay: SPR 25C, pH 6.0, steady state; pH 6.0; third replicate

B1: F3'-1602 TriNKET (bispecific antibody, human IgG1, kappa)
chain: QLQLQESGPGLVKPSETLSLTCTVSGFSLTNYGLHWIRQPPGKCLEWIGVIWSGGKTDYNPSLKSRVTISKDTSKNQFSLKLSSVQAADTAVYYCAKYDYDDSLDYWGQGTLVTVSSGGGGSGGGGSGGGGSGGGGSDIQMTQSPSSLSASVGDRVTITCHASQNINFWLSWYQQKPGKAPKLLIYEASNLHTGVPSRFSGSGSGTRFTLTISSLQPEDIATYYCQQSHSYPLTFGCGTKLEIKGSDKTHTCPPCPAPELLGGPSVFLFPPKPKDTLMISRTPEVTCVVVDVSHEDPEVKFNWYVDGVEVHNAKTKPREEQYNSTYRVVSVLTVLHQDWLNGKEYKCKVSNKALPAPIEKTISKAKGQPREPRVYTLPPCRDELTKNQVSLTCLVKGFYPSDIAVEWESNGQPENNYKTTPPVLVSDGSFTLYSKLTVDKSRWQQGNVFSCSVMHEALHNHYTQKSLSLSPG
heavy: EVQLVESGGGLVKPGGSLRLSCAASGFTFSSYSMNWVRQAPGKGLEWVSSISSSSSYIYYADSVKGRFTISRDNAKNSLYLQMNSLRAEDTAVYYCARGAPIGAAAGWFDPWGQGTLVTVSSASTKGPSVFPLAPSSKSTSGGTAALGCLVKDYFPEPVTVSWNSGALTSGVHTFPAVLQSSGLYSLSSVVTVPSSSLGTQTYICNVNHKPSNTKVDKKVEPKSCDKTHTCPPCPAPELLGGPSVFLFPPKPKDTLMISRTPEVTCVVVDVSHEDPEVKFNWYVDGVEVHNAKTKPREEQYNSTYRVVSVLTVLHQDWLNGKEYKCKVSNKALPAPIEKTISKAKGQPREPQVCTLPPSRDELTENQVSLTCLVKGFYPSDIAVEWESNGQPENNYKTTPPVLDSDGSFFLYSWLTVDKSRWQQGNVFSCSVMHEALHNHYTQKSLSLSPG
light: DIQMTQSPSSVSASVGDRVTITCRASQGISSWLAWYQQKPGKAPKLLIYAASSLQSGVPSRFSGSGSGTDFTLTISSLQPEDFATYYCQQGVSFPRTFGGGTKVEIKRTVAAPSVFIFPPSDEQLKSGTASVVCLLNNFYPREAKVQWKVDNALQSGNSQESVTEQDSKDSTYSLSSTLTLSKADYEKHKVYACEVTHQGLSSPVTKSFNRGEC
notes: Trispecific F3' format: CLEC12A scFv-Fc paired with NKG2D Fab-Fc; Stressed and control samples of the stability studies are the same molecule; also called AB0237
B1 was tested, and the Kd (Human CLEC12A-His [1]) was 0.91 nM, the koff (Human CLEC12A-His [1]) was 0.000708 s⁻¹ and the kon (Human CLEC12A-His [1]) was 776000 M⁻¹ s⁻¹.

B2: AB0192 TriNKET (other)
chain: EVQLVESGGGVVQPGGSLRLSCAASGFTFNAFGMHWVRQAPGKCLEWVAFISSGSTSIYYANTVKGRFTISRDNSKNTLYLQMNSLRAEDTAVYYCARDGYPTGGAMDYWGQGTSVTVSSGGGGSGGGGSGGGGSGGGGSDIQMTQSPSSLSASVGDRVTITCKASQDIYNYLSWFQQKPGKAPKPLIYRANILVSGVPSRFSGSGSGQDYTFTISSLQPEDIATYYCLQFDAFPFTFGCGTKLEIKGSDKTHTCPPCPAPELLGGPSVFLFPPKPKDTLMISRTPEVTCVVVDVSHEDPEVKFNWYVDGVEVHNAKTKPREEQYNSTYRVVSVLTVLHQDWLNGKEYKCKVSNKALPAPIEKTISKAKGQPREPRVYTLPPCRDELTKNQVSLTCLVKGFYPSDIAVEWESNGQPENNYKTTPPVLVSDGSFTLYSKLTVDKSRWQQGNVFSCSVMHEALHNHYTQKSLSLSPG
heavy: B1 heavy
light: B1 light
notes: the condition stands under assay; also called AB0192 Lot AB0192-005
With B2 the EC50 [2] was 0.37 nM, the “FOB (fold over background)” value [2] was 12 fold and the Kd (Human CLEC12A-His [3]) was 1.66 nM. For the same binder, the koff (Human CLEC12A-His [3]) was 0.00115 s⁻¹, the kon (Human CLEC12A-His [3]) was 690000 M⁻¹ s⁻¹ and the Kd (mFc-hNKG2D) was 796 nM. The koff (mFc-hNKG2D) was 0.142 s⁻¹, the kon (mFc-hNKG2D) was 178000 M⁻¹ s⁻¹ and the Kd (Human CD16a V158) was 180 nM. It also gave a koff (Human CD16a V158) of 0.0212 s⁻¹, a kon (Human CD16a V158) of 118000 M⁻¹ s⁻¹ and an EC50 [4] of 1.33 nM. For the same binder, the “FOB (fold over background)” value [4] was 325 fold.

B3: AB0089 TriNKET (bispecific antibody, human IgG1, kappa)
chain: B1 chain with S53V, K56A, K71V, Y98G, D101G, S103T, R207D, I220F
heavy: B1 heavy
light: B1 light
notes: F3' format heterodimer of three chains; human IgG1 Fc with EW-RVT and Y349C/S354C mutations; also called AB0089 Lot AB0089-002; CLEC12A TriNKET AB0089
B3 was tested, and the “EC50, KHYG-1-CD16aV mediated cytotoxicity, HL60 cells” value [5] was 0.27 nM, the “EC50, KHYG-1-CD16aV mediated cytotoxicity, PL21 cells” value [5] was 0.16 nM and the Kd [6] was 0.6 nM.

B4: F3'-1602 TriNKET (other)
chain: B1 chain
heavy: B1 heavy
light: B1 light
notes: CLEC12A scFv-Fc, NKG2D A49MI Fab-Fc, human IgG1 Fc; also called AB0237
B4 gave a Kd [7] of 2 nM, a Kd [8] of 900 nM and a Kd [9] of 1400 nM. For the same binder, the EC50 [10] was 1.6 nM, the “Max binding MFI” value [10] was 924 MFI and the Kd (recombinant human FcRn [11]) was 1300 nM. It also gave a Kd (recombinant human FcRn [12]) of 1500 nM.
